What was measured:
[1] = biological target: the molecule itself; test: crystal structure; X-ray; sitting drop vapor diffusion at 20 °C; Aip5-C by SeMet-MAD, Aip5-C-3m by molecular replacement
[2] = biological target: G-actin (monomeric actin used in microscale thermophoresis) (rabbit, UniProt P68135 1-377); test: MST; 2 µM G-actin mixed 1:1 with Aip5 loop peptide (highest stock 2 mM); G-buffer with 0.05% Tween 20; 25 °C; Kd mode fit; conditions: both partners purified

B1: Aip5-C-3m (L1150A, N1162A, S1165C) (domain or fragment, S. cerevisiae, UniProt P43597 1110-1233, looked up)
chain: DSTTQTTEQSKKNNDKPQDVITTSEIRKLNEKEPVYIYTSAAGGGFHMIPRTARLCTILTANRIPFTYRDLGTDDEARKVWKTFSKGRSLPGVVRGHNDLIGNWEEIEEANEDYKLRELIYDTI
notes: Aip5 (YFR016C), budding yeast, residues 1110-1233 with three point mutations; Homodimer in the crystal; also called triple mutant Aip5-C-3m; source: E. coli BL21 (DE3), purified
[1]
  binding result: binds

B2: Aip5 loop peptide (TSLAGGGFHM) (peptide)
peptide: TSLAGGGFHM
notes: also called loop containing peptide; peptides of Aip5 loop
[2]
  Kd: 99 ± 76 µM
